Target: Snail protein (SNAI1/Snail, expressed as GST fusion in E. coli, GST moiety cleaved with thrombin) (UniProt O95863)
Sequence (O95863 whole entry, the tested form may be a part): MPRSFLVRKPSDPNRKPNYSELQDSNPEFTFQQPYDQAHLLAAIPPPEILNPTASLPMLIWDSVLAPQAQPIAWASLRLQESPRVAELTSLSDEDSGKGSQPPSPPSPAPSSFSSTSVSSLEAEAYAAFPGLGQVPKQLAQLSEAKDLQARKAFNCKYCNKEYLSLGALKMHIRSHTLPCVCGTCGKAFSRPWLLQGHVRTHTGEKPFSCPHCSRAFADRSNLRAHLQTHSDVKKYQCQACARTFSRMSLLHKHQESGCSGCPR

## recombinant Akt3 (ProQinase GmbH)
  in vitro kinase assay with 32P-ATP, detected by autoradiography: Akt1 and Akt3 kinases are able to directly phosphorylate Snail protein

Source: patent US20150119475
